Data taken from the RNAGym collection of RNA variant scans (doi:10.1093/molbev/msab373).

B1: Azoarcus group I ribozyme (parent)
chain: GUGCCUUGCGCCGGGAAACCACGCAAGGGAUGGUGUCAAAUUCGGCGAAACCUAAGCGCCCGCCCGGGCGUAUGGCAACGCCGAGCCAAGCUUCGGCGCCUGCGCCGAUGAAGGUGUAGAGACUAGACGGCACCCACCUAAGGCAAACGCUAUGGUGAAGGCAUAGUCCAGGGAGUGGCGAAAGUCACACAAACCGG

Variants of: B1
Experiment: reverse-splicing fitness (ratio to wild type); higher = more active; in vitro selection; Mg2+ level not given
Procedure, shortened: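 An in vitro group I ribozyme library with randomized positions was T7-transcribed and gel-purified. In triplicate, 10 pmol RNA in EPPS pH 7.5 was reacted with 50 pmoles of a 30-nt RNA substrate for 1 h at 37 °C across several added MgCl2 levels (1–48 mM), then stopped with EDTA. Products were reverse transcribed from a substrate-complementary primer, PCR-amplified and sequenced (HiSeq 4000). Fitness is a variant's read proportion after selection over that before, normalised to wild type.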

Which reverse-splicing fitness does the source give for C82U A111G A120G A145G C150U C169G U176C here?
Its reverse-splicing fitness is 0.0168.

For C82U A111G A120G A145G C150U C169G U176G, which reverse-splicing fitness is on record?
Its reverse-splicing fitness is 0.00444.

With C82U A111G A120G A145G C150U C169U as the variant, how does the reverse-splicing fitness read?
Its reverse-splicing fitness is 0.0114.

Which reverse-splicing fitness does the source give for C82U A111G A120G A145G C150U C169U U176A here?
Its reverse-splicing fitness is 0.0187.

With C82U A111G A120G A145G C150U C169U U176C as the variant, how does the reverse-splicing fitness read?
Its reverse-splicing fitness is 0.0162.

With C82U A111G A120G A145G C150U C169U U176G as the variant, how does the reverse-splicing fitness read?
Its reverse-splicing fitness is 0.00525.

For C82U A111G A120G A145G C150U U176A, which reverse-splicing fitness is on record?
The reverse-splicing fitness was 0.00859.

With C82U A111G A120G A145G C150U U176C as the variant, how does the reverse-splicing fitness read?
Its reverse-splicing fitness is 0.0166.

For C82U A111G A120G A145G C150U U176G, which reverse-splicing fitness is on record?
Its reverse-splicing fitness is 0.00622.

For C82U A111G A120G A145G C169A, which reverse-splicing fitness is on record?
Its reverse-splicing fitness is 0.0117.

With C82U A111G A120G A145G C169A U176A as the variant, how does the reverse-splicing fitness read?
Its reverse-splicing fitness is 0.0215.

For C82U A111G A120G A145G C169A U176C, which reverse-splicing fitness is on record?
Its reverse-splicing fitness is 0.0277.

Which reverse-splicing fitness does the source give for C82U A111G A120G A145G C169A U176G here?
The reverse-splicing fitness was 0.00377.

For C82U A111G A120G A145G C169G, which reverse-splicing fitness is on record?
Its reverse-splicing fitness is 0.0129.

Which reverse-splicing fitness does the source give for C82U A111G A120G A145G C169G U176A here?
Its reverse-splicing fitness is 0.0211.

For C82U A111G A120G A145G C169G U176C, which reverse-splicing fitness is on record?
Its reverse-splicing fitness is 0.0289.

For C82U A111G A120G A145G C169G U176G, which reverse-splicing fitness is on record?
The reverse-splicing fitness was 0.00424.

For C82U A111G A120G A145G C169U, which reverse-splicing fitness is on record?
The reverse-splicing fitness was 0.011.

For C82U A111G A120G A145G C169U U176A, which reverse-splicing fitness is on record?
The reverse-splicing fitness was 0.0209.

Which reverse-splicing fitness does the source give for C82U A111G A120G A145G C169U U176C here?
The reverse-splicing fitness was 0.0164.

For C82U A111G A120G A145G C169U U176G, which reverse-splicing fitness is on record?
Its reverse-splicing fitness is 0.00414.

Which reverse-splicing fitness does the source give for C82U A111G A120G A145G U176A here?
Its reverse-splicing fitness is 0.0123.

For C82U A111G A120G A145G U176C, which reverse-splicing fitness is on record?
Its reverse-splicing fitness is 0.0192.

Which reverse-splicing fitness does the source give for C82U A111G A120G A145G U176G here?
Its reverse-splicing fitness is 0.00429.

With C82U A111G A120G A145U as the variant, how does the reverse-splicing fitness read?
The reverse-splicing fitness was 0.0174.

Which reverse-splicing fitness does the source give for C82U A111G A120G A145U C150A here?
The reverse-splicing fitness was 0.00726.

Which reverse-splicing fitness does the source give for C82U A111G A120G A145U C150A C169A here?
Its reverse-splicing fitness is 0.00822.

Which reverse-splicing fitness does the source give for C82U A111G A120G A145U C150A C169A U176A here?
The reverse-splicing fitness was 0.013.

For C82U A111G A120G A145U C150A C169A U176C, which reverse-splicing fitness is on record?
Its reverse-splicing fitness is 0.00962.

With C82U A111G A120G A145U C150A C169A U176G as the variant, how does the reverse-splicing fitness read?
The reverse-splicing fitness was 0.00458.

Which reverse-splicing fitness does the source give for C82U A111G A120G A145U C150A C169G here?
The reverse-splicing fitness was 0.00754.

With C82U A111G A120G A145U C150A C169G U176A as the variant, how does the reverse-splicing fitness read?
Its reverse-splicing fitness is 0.0124.

With C82U A111G A120G A145U C150A C169G U176C as the variant, how does the reverse-splicing fitness read?
Its reverse-splicing fitness is 0.0137.

Which reverse-splicing fitness does the source give for C82U A111G A120G A145U C150A C169G U176G here?
Its reverse-splicing fitness is 0.00398.

With C82U A111G A120G A145U C150A C169U as the variant, how does the reverse-splicing fitness read?
The reverse-splicing fitness was 0.00646.

Which reverse-splicing fitness does the source give for C82U A111G A120G A145U C150A C169U U176A here?
The reverse-splicing fitness was 0.019.

Which reverse-splicing fitness does the source give for C82U A111G A120G A145U C150A C169U U176C here?
Its reverse-splicing fitness is 0.0142.

For C82U A111G A120G A145U C150A C169U U176G, which reverse-splicing fitness is on record?
Its reverse-splicing fitness is 0.0048.

With C82U A111G A120G A145U C150A U176A as the variant, how does the reverse-splicing fitness read?
Its reverse-splicing fitness is 0.00974.

Which reverse-splicing fitness does the source give for C82U A111G A120G A145U C150A U176C here?
Its reverse-splicing fitness is 0.013.

With C82U A111G A120G A145U C150A U176G as the variant, how does the reverse-splicing fitness read?
The reverse-splicing fitness was 0.00406.

Which reverse-splicing fitness does the source give for C82U A111G A120G A145U C150G here?
The reverse-splicing fitness was 0.00645.

With C82U A111G A120G A145U C150G C169A as the variant, how does the reverse-splicing fitness read?
Its reverse-splicing fitness is 0.00861.

With C82U A111G A120G A145U C150G C169A U176A as the variant, how does the reverse-splicing fitness read?
Its reverse-splicing fitness is 0.00905.

For C82U A111G A120G A145U C150G C169A U176C, which reverse-splicing fitness is on record?
Its reverse-splicing fitness is 0.00917.

Which reverse-splicing fitness does the source give for C82U A111G A120G A145U C150G C169A U176G here?
The reverse-splicing fitness was 0.00391.

Which reverse-splicing fitness does the source give for C82U A111G A120G A145U C150G C169G here?
Its reverse-splicing fitness is 0.00704.

For C82U A111G A120G A145U C150G C169G U176A, which reverse-splicing fitness is on record?
The reverse-splicing fitness was 0.00667.

Which reverse-splicing fitness does the source give for C82U A111G A120G A145U C150G C169G U176C here?
The reverse-splicing fitness was 0.00487.

With C82U A111G A120G A145U C150G C169G U176G as the variant, how does the reverse-splicing fitness read?
The reverse-splicing fitness was 0.00427.

For C82U A111G A120G A145U C150G C169U, which reverse-splicing fitness is on record?
The reverse-splicing fitness was 0.00832.

Which reverse-splicing fitness does the source give for C82U A111G A120G A145U C150G C169U U176A here?
The reverse-splicing fitness was 0.0129.

Which reverse-splicing fitness does the source give for C82U A111G A120G A145U C150G C169U U176C here?
Its reverse-splicing fitness is 0.0117.

Which reverse-splicing fitness does the source give for C82U A111G A120G A145U C150G C169U U176G here?
Its reverse-splicing fitness is 0.0048.

With C82U A111G A120G A145U C150G U176A as the variant, how does the reverse-splicing fitness read?
The reverse-splicing fitness was 0.00535.

Which reverse-splicing fitness does the source give for C82U A111G A120G A145U C150G U176C here?
Its reverse-splicing fitness is 0.00779.

For C82U A111G A120G A145U C150G U176G, which reverse-splicing fitness is on record?
The reverse-splicing fitness was 0.00321.

With C82U A111G A120G A145U C150U as the variant, how does the reverse-splicing fitness read?
Its reverse-splicing fitness is 0.0126.

For C82U A111G A120G A145U C150U C169A, which reverse-splicing fitness is on record?
The reverse-splicing fitness was 0.00925.

Which reverse-splicing fitness does the source give for C82U A111G A120G A145U C150U C169A U176A here?
The reverse-splicing fitness was 0.0119.

For C82U A111G A120G A145U C150U C169A U176C, which reverse-splicing fitness is on record?
Its reverse-splicing fitness is 0.00928.

Which reverse-splicing fitness does the source give for C82U A111G A120G A145U C150U C169A U176G here?
Its reverse-splicing fitness is 0.0045.

With C82U A111G A120G A145U C150U C169G as the variant, how does the reverse-splicing fitness read?
Its reverse-splicing fitness is 0.0107.

With C82U A111G A120G A145U C150U C169G U176A as the variant, how does the reverse-splicing fitness read?
The reverse-splicing fitness was 0.0116.

With C82U A111G A120G A145U C150U C169G U176C as the variant, how does the reverse-splicing fitness read?
The reverse-splicing fitness was 0.0132.

Which reverse-splicing fitness does the source give for C82U A111G A120G A145U C150U C169G U176G here?
The reverse-splicing fitness was 0.00409.

For C82U A111G A120G A145U C150U C169U, which reverse-splicing fitness is on record?
The reverse-splicing fitness was 0.00963.

With C82U A111G A120G A145U C150U C169U U176A as the variant, how does the reverse-splicing fitness read?
The reverse-splicing fitness was 0.02.

For C82U A111G A120G A145U C150U C169U U176C, which reverse-splicing fitness is on record?
The reverse-splicing fitness was 0.0131.

Which reverse-splicing fitness does the source give for C82U A111G A120G A145U C150U C169U U176G here?
The reverse-splicing fitness was 0.00432.

With C82U A111G A120G A145U C150U U176A as the variant, how does the reverse-splicing fitness read?
Its reverse-splicing fitness is 0.00942.

For C82U A111G A120G A145U C150U U176C, which reverse-splicing fitness is on record?
The reverse-splicing fitness was 0.0124.

With C82U A111G A120G A145U C150U U176G as the variant, how does the reverse-splicing fitness read?
The reverse-splicing fitness was 0.00411.

For C82U A111G A120G A145U C169A, which reverse-splicing fitness is on record?
The reverse-splicing fitness was 0.00841.

With C82U A111G A120G A145U C169A U176A as the variant, how does the reverse-splicing fitness read?
The reverse-splicing fitness was 0.0102.

With C82U A111G A120G A145U C169A U176C as the variant, how does the reverse-splicing fitness read?
The reverse-splicing fitness was 0.00896.

Which reverse-splicing fitness does the source give for C82U A111G A120G A145U C169A U176G here?
Its reverse-splicing fitness is 0.00425.

For C82U A111G A120G A145U C169G, which reverse-splicing fitness is on record?
The reverse-splicing fitness was 0.0113.

With C82U A111G A120G A145U C169G U176A as the variant, how does the reverse-splicing fitness read?
Its reverse-splicing fitness is 0.0112.

Which reverse-splicing fitness does the source give for C82U A111G A120G A145U C169G U176C here?
Its reverse-splicing fitness is 0.0118.

With C82U A111G A120G A145U C169G U176G as the variant, how does the reverse-splicing fitness read?
The reverse-splicing fitness was 0.00372.

Which reverse-splicing fitness does the source give for C82U A111G A120G A145U C169U here?
Its reverse-splicing fitness is 0.0103.

With C82U A111G A120G A145U C169U U176A as the variant, how does the reverse-splicing fitness read?
The reverse-splicing fitness was 0.0208.

With C82U A111G A120G A145U C169U U176C as the variant, how does the reverse-splicing fitness read?
Its reverse-splicing fitness is 0.0133.
